In paper PMC548348:

Biological target: hnRNP A2 (recombinant) (Homo sapiens, UniProt P22626-2 1-341)
Assay: UV-cross-linking EMSA, competition

B1: A2RE11 (ssRNA)
RNA: GCCAAGGAGCC
- binding result: binds
